Laboratory results reported in patent US20250144228A1 (published 2025).

Legend:
[1] = molecular target: A/Wisconsin/629-D00015/2009 (H1N1)pdm09 (influenza A virus)
[2] = molecular target: A/Hong Kong/8/1968 (H3N2) (influenza A virus)
hemagglutinin = hemagglutinin (influenza A virus)
[3] = molecular target: Influenza A virus - A/Hong Kong/8/1968 (H3N2) (influenza A virus)
[4] = molecular target: a monoclonal mouse IgM, κ Isotype Ctrl (mouse); test: ELISA
mouse polyclonal IgG = mouse polyclonal IgG (mouse); test: ELISA
mouse polyclonal IgA = molecular target: T1, mouse polyclonal IgA (mouse, UniProt P11911); test: ELISA
T1 sequence (P11911 whole entry, looked up): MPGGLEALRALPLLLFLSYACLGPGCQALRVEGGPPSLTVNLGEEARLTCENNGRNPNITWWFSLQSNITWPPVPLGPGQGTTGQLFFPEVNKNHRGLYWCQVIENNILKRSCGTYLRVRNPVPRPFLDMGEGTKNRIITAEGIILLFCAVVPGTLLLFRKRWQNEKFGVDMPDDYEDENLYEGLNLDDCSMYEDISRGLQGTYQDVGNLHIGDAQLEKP

[5] = molecular target: T2, P. falciparum MSP-1 subunit p83 (plate-bound, isolated) (Plasmodium falciparum, UniProt Q8I0U8 20-722); test: ELISA
T2 chain: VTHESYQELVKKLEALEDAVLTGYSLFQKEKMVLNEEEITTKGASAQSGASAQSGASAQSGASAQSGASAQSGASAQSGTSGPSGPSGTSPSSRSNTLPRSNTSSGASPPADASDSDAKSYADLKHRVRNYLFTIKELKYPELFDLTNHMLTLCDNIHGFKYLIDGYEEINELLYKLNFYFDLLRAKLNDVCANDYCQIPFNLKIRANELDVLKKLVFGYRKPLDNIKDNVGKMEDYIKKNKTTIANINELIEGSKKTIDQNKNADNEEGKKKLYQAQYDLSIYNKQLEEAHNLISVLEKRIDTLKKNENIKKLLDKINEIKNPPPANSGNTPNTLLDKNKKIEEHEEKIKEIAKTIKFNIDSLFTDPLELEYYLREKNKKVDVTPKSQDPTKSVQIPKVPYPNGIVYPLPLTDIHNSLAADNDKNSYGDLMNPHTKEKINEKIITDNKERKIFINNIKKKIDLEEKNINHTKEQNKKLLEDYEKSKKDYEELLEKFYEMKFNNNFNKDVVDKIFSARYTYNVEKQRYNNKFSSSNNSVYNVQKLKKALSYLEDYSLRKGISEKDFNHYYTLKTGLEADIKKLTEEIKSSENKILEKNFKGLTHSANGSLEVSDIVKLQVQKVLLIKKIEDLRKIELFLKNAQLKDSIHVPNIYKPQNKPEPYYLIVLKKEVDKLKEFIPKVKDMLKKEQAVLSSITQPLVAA

[6] = molecular target: T3, P. falciparum MSP-1 subunit p42 (plate-bound, isolated) (Plasmodium falciparum, UniProt Q8I0U8 1327-1699); test: ELISA
T3 chain: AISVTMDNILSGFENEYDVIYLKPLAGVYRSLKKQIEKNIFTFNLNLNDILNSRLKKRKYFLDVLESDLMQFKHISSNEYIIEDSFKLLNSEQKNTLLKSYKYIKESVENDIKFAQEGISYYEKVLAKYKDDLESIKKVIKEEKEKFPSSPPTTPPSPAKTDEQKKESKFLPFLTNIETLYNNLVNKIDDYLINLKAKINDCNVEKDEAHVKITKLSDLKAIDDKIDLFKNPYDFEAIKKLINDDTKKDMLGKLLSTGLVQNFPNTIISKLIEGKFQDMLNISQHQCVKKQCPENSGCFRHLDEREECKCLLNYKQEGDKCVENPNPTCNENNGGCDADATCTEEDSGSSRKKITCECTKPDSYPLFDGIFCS

mouse IgG2b = mouse IgG2b (mouse); test: ELISA

B1: SD36-biotin (VHH)
VHH: EVQLVESGGGLVQAGGSLKLSCAASGRTYAMGWFRQAPGKEREFVAHINALGTRTYYSDSVKGRFTISRDNAKNTEYLEMNNLKPEDTAVYYCTAQGQWRAAPVAVAAEYEFWGQGTQVTVSS
Work on B1 yielded a Kd [1] of 18.7 nM and a Kd [2] of 1.3 nM.

B2: VHHkappa-SD36 (bispecific antibody, V domains shown)
V domain 1: QVQLVESGGGWVQPGGSLRLSCAASGFTFSDTAMMWVRQAPGKGREWVAAIDTGGGYTYYADSVKGRFTISRDNAKNTLYLQMNSLKPEDTARYYCAKTYSGNYYSNYTVANYGTTGRGTLVTVSS
V domain 2: EVQLVESGGGLVQAGGSLKLSCAASGRTYAMGWFRQAPGKEREFVAHINALGTRTYYSDSVKGRFTISRDNAKNTEYLEMNNLKPEDTAVYYCTAQGQWRAAPVAVAAEYEFWGQGTQVTVSS
For B2, the Kd (hemagglutinin) was 15.5 nM and the Kd [3] was 0.6 nM.

B3: VHHkappa-SD36-biotin (genetic fusion) (bispecific antibody)
chain: QVQLVESGGGWVQPGGSLRLSCAASGFTFSDTAMMWVRQAPGKGREWVAAIDTGGGYTYYADSVKGRFTISRDNAKNTLYLQMNSLKPEDTARYYCAKTYSGNYYSNYTVANYGTTGRGTLVTVSSAAAGGGGSGGGGSGGGGSEVQLVESGGGLVQAGGSLKLSCAASGRTYAMGWFRQAPGKEREFVAHINALGTRTYYSDSVKGRFTISRDNAKNTEYLEMNNLKPEDTAVYYCTAQGQWRAAPVAVAAEYEFWGQGTQVTVSSGGLPETGGHHHHHH
Work on B3 yielded a Kd [1] of 59.7 nM and a Kd [2] of 1.8 nM.

B4: VHHkappa (mouse)-SD36-biotin (bispecific antibody)
chain: QVQLVESGGGWVQPGGSLRLSCAASGFTFSDTAMMWVRQAPGKGREWVAAIDTGGGYTYYADSVKGRFTISRDNAKNTLYLQMNSLKPEDTARYYCAKTYSGNYYSNYTVANYGTTGRGTLVTVSSAAAGGGGSGGGGSGGGGSEVQLVESGGGLVQAGGSLKLSCAASGRTYAMGWFRQAPGKEREFVAHINALGTRTYYSDSVKGRFTISRDNAKNTEYLEMNNLKPEDTAVYYCTAQGQWRAAPVAVAAEYEFWGQGTQVTVSSGGLPETGGHHHHHH
For B4, the Kd [4] was 0.0102 nM, the Kd (mouse polyclonal IgG) was 0.0083 nM and the Kd (mouse polyclonal IgA) was 0.434 nM.

B5: VHHkappa (mouse)-biotin (VHH)
VHH: QVQLVESGGGWVQPGGSLRLSCAASGFTFSDTAMMWVRQAPGKGREWVAAIDTGGGYTYYADSVKGRFTISRDNAKNTLYLQMNSLKPEDTARYYCAKTYSGNYYSNYTVANYGTTGRGTLVTVSS
Binder B5 has a Kd [4] of 0.0112 nM, a Kd (mouse polyclonal IgG) of 0.0072 nM and a Kd (mouse polyclonal IgA) of 0.508 nM.

B6: anti-p83 B4 VHH (P. falciparum MSP-1 specific) (VHH)
VHH: QLQLVESGGGLAQAGGSLRLSCAASGRTSSTKPMGWFRQAPGLEREFVASISWLGGSTLYSDSVKGRFTISRDNAKNTVYLQMNSLKSEDTAVYYCAGGTSAYSGRDSSRYEYWGQGTQVTVSS
Work on B6 yielded a Kd [5] of 1.81 nM.

B7: anti-p42 G11 VHH (P. falciparum MSP-1 specific) (VHH)
VHH: QVQLVETGGGLVQAGGSLRLSCVVSGRSLILYGMGWFRQAPGKEREFVAGIVWNGGWTYYADSVKGRFTISRDTAKNTVYLQMNSLKPEDTAVYSCAAGPGDGRRRVAPAEYNYWGQGTQVTVSS
B7 gave a Kd [6] of 0.52 nM.

B8: VHHkappa-SD36-biotin-1 (bispecific antibody, V domains shown)
V domain 1: QVQLVESGGGWVQPGGSLRLSCAASGFTFSDTAMMWVRQAPGKGREWVAAIDTGGGYTYYADSVKGRFTISRDNAKNTLYLQMNSLKPEDTARYYCAKTYSGNYYSNYTVANYGTTGRGTLVTVSS
V domain 2: EVQLVESGGGLVQAGGSLKLSCAASGRTYAMGWFRQAPGKEREFVAHINALGTRTYYSDSVKGRFTISRDNAKNTEYLEMNNLKPEDTAVYYCTAQGQWRAAPVAVAAEYEFWGQGTQVTVSS
In the case of B8, the Kd (mouse IgG2b) is reported as 2 nM.

B9: VHHkappa-SD36-biotin-2 (bispecific antibody, V domains shown)
V domain 1: QVQLVESGGGWVQPGGSLRLSCAASGFTFSDTAMMWVRQAPGKGREWVAAIDTGGGYTYYADSVKGRFTISRDNAKNTLYLQMNSLKPEDTARYYCAKTYSGNYYSNYTVANYGTTGRGTLVTVSS
V domain 2: EVQLVESGGGLVQAGGSLKLSCAASGRTYAMGWFRQAPGKEREFVAHINALGTRTYYSDSVKGRFTISRDNAKNTEYLEMNNLKPEDTAVYYCTAQGQWRAAPVAVAAEYEFWGQGTQVTVSS
B9 showed a Kd (mouse IgG2b) of 2.4 nM.

B10: VHHkappa-biotin (VHH)
VHH: QVQLVESGGGWVQPGGSLRLSCAASGFTFSDTAMMWVRQAPGKGREWVAAIDTGGGYTYYADSVKGRFTISRDNAKNTLYLQMNSLKPEDTARYYCAKTYSGNYYSNYTVANYGTTGRGTLVTVSS
B10 gave a Kd (mouse IgG2b) of 2.1 nM.

B11: anti-p42 A6 VHH (P. falciparum MSP-1 specific) (VHH)
VHH: QVQLVESGGGLVQAGGSLRLSCAASARTFSYYGAAWFRQAPGKEREFVAAVSWNGDDTYYADSVKGRFTISRDNTKNTVSLQMNALKPEDTAVYYCEAAAYGRDWRQSANYVYWGQGTQVTVSS
B11 gave a Kd [6] of 1.96 nM.
